Measurements reported in patent publication US8026218 (UNIVERSITY OF ARIZONA, dated 2011).
Read-outs that look alike come from different tables or passages of the source. Bridge positions count the residues as written; N and C are the ends. Square brackets hold non-standard residues; d marks the D form. Ends that are not written are not given here. * marks the point of attachment. Glc = O-glucosyl on Ser side chain (Ser(OGlu)/Ser(OGlc)); NH(3,5-(CF3)2-benzyl) = FC(F)(F)c1cc(CN*)cc(C(F)(F)F)c1; OBzl(3,5-(CF3)2) = FC(F)(F)c1cc(CO*)cc(C(F)(F)F)c1; Nle = CCCC[C@H](N)C(=O)O

Columns and labels:
rat NK1 receptor [1] = molecular target: T1, rat NK1 receptor (rat, UniProt P14600 1-407); assay: competition vs [3H]Substance P, rNK1 CHO cell membranes
T1 construct: whole, on cells; membrane preparations of the transfected cells were used; also called rNK1; rNK-1
T1 sequence (P14600 whole entry): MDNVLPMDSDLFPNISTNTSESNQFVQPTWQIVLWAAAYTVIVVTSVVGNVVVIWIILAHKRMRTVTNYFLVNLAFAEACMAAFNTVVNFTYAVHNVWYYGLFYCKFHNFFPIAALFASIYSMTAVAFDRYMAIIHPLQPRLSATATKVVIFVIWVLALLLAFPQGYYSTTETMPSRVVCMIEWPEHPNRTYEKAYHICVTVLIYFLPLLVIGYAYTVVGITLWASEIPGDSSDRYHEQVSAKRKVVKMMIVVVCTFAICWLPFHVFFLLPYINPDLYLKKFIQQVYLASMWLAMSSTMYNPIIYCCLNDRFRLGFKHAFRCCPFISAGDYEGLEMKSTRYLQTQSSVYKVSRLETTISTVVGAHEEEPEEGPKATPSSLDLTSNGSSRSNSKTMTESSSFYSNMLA

human NK1 receptor [2] = molecular target: T2, human NK1 receptor (human, UniProt P25103 1-407); assay: competition vs [3H]Substance P, hNK1 CHO cell membranes
T2 construct: whole, on cells; membrane preparations of the transfected cells were used; also called hNK1; human neurokinin-1 receptor

[3] = molecular target: µ opioid receptor of the guinea pig isolated ileum (guinea pig); assay: cell-based or functional assay
guinea pig NK1 receptor [4] = molecular target: T3, guinea pig NK1 receptor (guinea pig, UniProt P30547 1-407); assay: cell-based or functional assay
T3 sequence (P30547 whole entry): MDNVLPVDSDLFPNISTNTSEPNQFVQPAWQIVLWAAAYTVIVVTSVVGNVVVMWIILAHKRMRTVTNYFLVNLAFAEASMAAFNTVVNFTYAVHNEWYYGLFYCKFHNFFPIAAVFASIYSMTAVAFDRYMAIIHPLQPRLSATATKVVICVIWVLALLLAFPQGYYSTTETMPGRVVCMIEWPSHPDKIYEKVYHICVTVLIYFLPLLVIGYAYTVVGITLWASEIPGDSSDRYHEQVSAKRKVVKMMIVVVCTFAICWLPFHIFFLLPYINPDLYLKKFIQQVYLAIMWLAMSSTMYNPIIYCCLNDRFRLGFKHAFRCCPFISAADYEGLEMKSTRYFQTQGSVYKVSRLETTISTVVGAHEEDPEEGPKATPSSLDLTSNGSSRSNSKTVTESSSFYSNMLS

rat µ opioid receptor [5] = molecular target: T4, rat µ opioid receptor (rat, UniProt P33535 1-398); assay: competition vs [3H]DAMGO, membranes of rMOR-transfected HN9.10 cells
T4 construct: whole, on cells; Assayed as membrane preparations of transfected cells; also called rMOR; MOR
T4 sequence (P33535 whole entry): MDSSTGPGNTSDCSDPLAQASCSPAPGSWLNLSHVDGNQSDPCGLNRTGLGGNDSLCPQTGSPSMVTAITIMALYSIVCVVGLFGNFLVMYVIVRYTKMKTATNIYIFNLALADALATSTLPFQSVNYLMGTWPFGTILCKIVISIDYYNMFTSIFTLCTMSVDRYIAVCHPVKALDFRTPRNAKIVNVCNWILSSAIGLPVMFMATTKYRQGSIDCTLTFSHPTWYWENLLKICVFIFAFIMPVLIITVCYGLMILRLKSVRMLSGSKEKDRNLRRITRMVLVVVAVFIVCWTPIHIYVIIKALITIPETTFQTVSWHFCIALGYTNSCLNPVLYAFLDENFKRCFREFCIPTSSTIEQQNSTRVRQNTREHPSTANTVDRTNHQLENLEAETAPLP

human δ opioid receptor [6] = molecular target: T5, human δ opioid receptor (human, UniProt P41143 1-372); assay: competition vs [3H]DPDPE, membranes of hDOR-transfected HN9.10 cells
T5 construct: whole, on cells; Assayed as membrane preparations of transfected cells; also called hDOR; DOR
T5 sequence (P41143 whole entry, stated change not applied): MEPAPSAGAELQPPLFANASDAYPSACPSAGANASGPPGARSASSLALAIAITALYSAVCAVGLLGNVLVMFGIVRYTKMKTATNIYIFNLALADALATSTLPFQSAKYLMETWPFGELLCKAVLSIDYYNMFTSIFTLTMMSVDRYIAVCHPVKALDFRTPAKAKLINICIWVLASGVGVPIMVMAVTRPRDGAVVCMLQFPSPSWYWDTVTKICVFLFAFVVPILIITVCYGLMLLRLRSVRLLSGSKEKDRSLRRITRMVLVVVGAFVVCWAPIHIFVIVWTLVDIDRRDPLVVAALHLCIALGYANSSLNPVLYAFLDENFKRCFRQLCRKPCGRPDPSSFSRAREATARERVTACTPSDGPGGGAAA

rat NK1 receptor [7] = molecular target: T6, rat NK1 receptor (rat, UniProt P14600 1-407); assay: radioligand competition vs [3H]substance P; reference value of L-732,138 (around 460 nM) is a reported one
T6 construct: whole, on cells; Assayed as membrane preparations of transfected CHO cells; also called rNK1; rNK-1
T6 sequence (P14600 whole entry): as the sequence (P14600 whole entry) above

human δ opioid receptor [8] = molecular target: T5, human δ opioid receptor; assay: ratio of Ki at rMOR to Ki at hDOR
rat NK1 receptor [9] = molecular target: T6, rat NK1 receptor; assay: competition vs [3H]substance P, membranes of rNK1-transfected CHO cells
human δ opioid receptor [10] = molecular target: T5, human δ opioid receptor; assay: cell-based or functional assay
rat µ opioid receptor [11] = molecular target: T4, rat µ opioid receptor; assay: cell-based or functional assay
guinea pig NK1 receptor [12] = molecular target: T3, guinea pig NK1 receptor; assay: cell-based or functional assay; remark: listed apart in the source
rat µ opioid receptor [13] = molecular target: T7, rat µ opioid receptor (rat, UniProt P33535 1-398); assay: competition vs [3H]DAMGO, rMOR cell membranes
T7 construct: whole, on cells; membrane preparations of the transfected cells were used; also called rMOR; MOR
T7 sequence (P33535 whole entry): as the sequence (P33535 whole entry) above

human NK1 receptor [14] = molecular target: T2, human NK1 receptor; assay: competition vs [3H]Substance P, hNK1 CHO cell membranes; remark: listed apart in the source
human δ opioid receptor [15] = molecular target: T8, human δ opioid receptor (human, UniProt P41143 1-372); assay: competition vs [3H]DPDPE, hDOR cell membranes
T8 construct: whole, on cells; membrane preparations of the transfected cells were used; also called hDOR; DOR
T8 sequence (P41143 whole entry, stated change not applied): as the sequence (P41143 whole entry, stated change not applied) above

rat µ opioid receptor [16] = molecular target: T7, rat µ opioid receptor; assay: cell-based or functional assay; remark: listed apart in the source
human δ opioid receptor [17] = molecular target: T8, human δ opioid receptor; assay: cell-based or functional assay; remark: listed apart in the source
human δ opioid receptor [18] = molecular target: T5, human δ opioid receptor; assay: competition vs [3H]DPDPE, hDOR membranes
rat µ opioid receptor [19] = molecular target: T7, rat µ opioid receptor; assay: cell-based or functional assay; remark: listed apart in the source
guinea pig NK1 receptor [20] = molecular target: T9, guinea pig NK1 receptor (guinea pig, UniProt P30547 1-407); assay: cell-based or functional assay; remark: listed apart in the source
T9 sequence (P30547 whole entry): as the sequence (P30547 whole entry) above

human δ opioid receptor [21] = molecular target: T8, human δ opioid receptor; assay: cell-based or functional assay; remark: listed apart in the source
[22] = molecular target: T10, µ opioid receptor of the guinea pig isolated ileum (guinea pig, UniProt P97266 1-98); assay: cell-based or functional assay
human NK1 receptor [23] = molecular target: T2, human NK1 receptor; assay: competition vs [3H]Substance P, hNK1 CHO cell membranes; remark: listed apart in the source
rat NK1 receptor [24] = molecular target: T1, rat NK1 receptor; assay: competition vs [3H]Substance P, rNK1 CHO cell membranes; remark: listed apart in the source
human δ opioid receptor [25] = molecular target: T8, human δ opioid receptor; assay: competition vs [3H]DPDPE, hDOR cell membranes; remark: listed apart in the source
rat µ opioid receptor [26] = molecular target: T7, rat µ opioid receptor; assay: competition vs [3H]DAMGO, rMOR cell membranes; remark: listed apart in the source
rat NK1 receptor [27] = molecular target: T1, rat NK1 receptor; assay: competition vs [3H]Substance P, rNK1 CHO cell membranes; remark: listed apart in the source
rat NK1 receptor [28] = molecular target: T1, rat NK1 receptor; assay: as above; remark: listed apart in the source
guinea pig NK1 receptor [29] = molecular target: T9, guinea pig NK1 receptor; assay: cell-based or functional assay; remark: listed apart in the source
[30] = molecular target: T10, µ opioid receptor of the guinea pig …; assay: cell-based or functional assay; remark: listed apart in the source
human δ opioid receptor [31] = molecular target: T8, human δ opioid receptor; assay: competition vs [3H]DPDPE, hDOR cell membranes; remark: listed apart in the source
human δ opioid receptor [32] = molecular target: T8, human δ opioid receptor; assay: competition vs [3H]DPDPE, hDOR cell membranes; remark: listed apart in the source
rat µ opioid receptor [33] = molecular target: T7, rat µ opioid receptor; assay: cell-based or functional assay; remark: listed apart in the source
human δ opioid receptor [34] = molecular target: T8, human δ opioid receptor; assay: cell-based or functional assay; remark: listed apart in the source
guinea pig NK1 receptor [35] = molecular target: T9, guinea pig NK1 receptor; assay: cell-based or functional assay; remark: listed apart in the source
[36] = molecular target: T10, µ opioid receptor of the guinea pig …; assay: cell-based or functional assay; remark: listed apart in the source
guinea pig NK1 receptor [37] = molecular target: T9, guinea pig NK1 receptor; assay: cell-based or functional assay; remark: listed apart in the source
[38] = molecular target: T10, µ opioid receptor of the guinea pig …; assay: cell-based or functional assay; remark: listed apart in the source

T2 sequence (P25103 whole entry): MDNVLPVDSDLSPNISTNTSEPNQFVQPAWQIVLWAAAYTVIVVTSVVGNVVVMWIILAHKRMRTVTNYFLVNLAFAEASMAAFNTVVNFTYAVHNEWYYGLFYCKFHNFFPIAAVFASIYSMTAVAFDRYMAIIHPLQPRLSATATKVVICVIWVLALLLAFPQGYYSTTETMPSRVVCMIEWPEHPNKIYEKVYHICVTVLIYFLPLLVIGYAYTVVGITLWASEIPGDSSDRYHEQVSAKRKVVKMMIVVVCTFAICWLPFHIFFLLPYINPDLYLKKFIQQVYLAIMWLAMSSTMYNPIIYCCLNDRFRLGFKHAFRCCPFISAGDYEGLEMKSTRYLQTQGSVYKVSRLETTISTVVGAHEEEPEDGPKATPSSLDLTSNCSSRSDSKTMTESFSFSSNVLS
T10 sequence (P97266 whole entry): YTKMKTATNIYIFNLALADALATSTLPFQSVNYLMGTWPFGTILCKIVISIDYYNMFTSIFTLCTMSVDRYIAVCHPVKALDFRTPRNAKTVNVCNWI

## Y[dA]GF[Nle]PLS(Glc)W-{NH(3,5-(CF3)2-benzyl)} (also called TY055) [TyrDAlaGlyPheNleProLeuSer(OGlu)TrpNHBn(CF3)2]
Rat NK1 receptor [1]
  Ki: 34 nM
Human NK1 receptor [2]
  Ki: 0.052 nM

## H-Y[dA]GFFPLW-{OBzl(3,5-(CF3)2)} (also: TFA salt, TFA salt; also called TY003) [H-Tyr-D-Ala-Gly-Phe-Phe-Pro-Leu-Trp-O-3,5-Bzl(CF3)2]
[3]
  GPI (µ) opioid agonist, % at 1 µM: 7 % at 1 µM
Guinea pig NK1 receptor [4]
  Substance P GPI agonist (A50), contraction relative to KCl: 0 % at 1 µM
  Substance P GPI antagonist Ke: 14.4 nM
Rat µ opioid receptor [5]
  Ki: 28.3 nM
  LogIC50: -7.22
Human δ opioid receptor [6]
  Ki: 14.6 nM
  LogIC50: -7.5
Rat NK1 receptor [7]
  fold improvement of rNK1 affinity over L-732,138: 25 fold
Human δ opioid receptor [8]
  Ki(µ)/Ki(δ): 1.9
Rat NK1 receptor [9]
  IC50: 19.3 nM
  LogIC50: -7.72
Human δ opioid receptor [10]
  [35S]GTP-γ-S binding EC50: 20.8 nM
  [35S]GTP-γ-S binding Emax: 39%
  [35S]GTP-γ-S binding LogEC50: -7.68
Rat µ opioid receptor [11]
  [35S]GTP-γ-S binding EC50: 58.7 nM
  [35S]GTP-γ-S binding Emax: 41%
  [35S]GTP-γ-S binding LogEC50: -7.23
Guinea pig NK1 receptor [12]
  fold improvement of Ke in GPI tissue over L-732,138: 12 fold

B1: Tyr[DPenGlyPhePen]ProLeuTrpNHBn(CF3)2 (peptide)
peptide: YXGFXPLW
modifications: D-Pen at 2 and Pen at 5 (written X); disulfide 2-5; C-terminal NH-3,5-Bzl(CF3)2 amide
notes: cyclic; also called TY046
Rat µ opioid receptor [13]
  Ki: 2330 nM
Human NK1 receptor [14]
  Ki: 0.0053 nM
Human δ opioid receptor [15]
  Ki: 1.7 nM
Rat µ opioid receptor [16]
  GTP binding EC50: 28.8 nM
Human δ opioid receptor [17]
  GTP binding EC50: 17.3 nM

## Y[dC]GF[Nle]P[dC]W-{NH(3,5-(CF3)2-benzyl)} (disulfide 2-7, also called TY038; TY38) [Tyr[DCysGlyPheNleProDCys]TrpNHBn(CF3)2]
Human δ opioid receptor [18]
  fold lower affinity than TY027: 85 fold

## Y[dA]GFS(Glc)PLW-{NH(3,5-(CF3)2-benzyl)} (also called TY042) [TyrDAlaGlyPheSer(OGlu)ProLeuTrpNHBn(CF3)2]
Rat µ opioid receptor [19]
  GTP binding EC50: 176 nM
  GTP binding Emax: 28%
Guinea pig NK1 receptor [20]
  GPI/LMMP SP antagonist Ke: 2.83 nM
Human δ opioid receptor [21]
  GTP binding EC50: 51.9 nM
  GTP binding Emax: 47%
[22]
  GPI/LMMP IC50: 1890 nM
Human NK1 receptor [23]
  Ki: 0.00027 nM
Rat NK1 receptor [24]
  Ki: 1.5 nM
Human δ opioid receptor [25]
  Ki: 58.5 nM
Rat µ opioid receptor [26]
  Ki: 256 nM

## Y[dA]GFMPLW-{OBzl(3,5-(CF3)2)} (also called TY005) [TyrDAlaGlyPheMetProLeuTrpOBn(CF3)2]
Rat NK1 receptor [27]
  IC50: 6.4 nM
Rat NK1 receptor [28]
  Ki: 0.2 nM
Guinea pig NK1 receptor [29]
  GPI/LMMP SP antagonist Ke: 24.7 nM
[30]
  GPI/LMMP IC50: 359 nM
Human δ opioid receptor [31]
  Ki: 2.8 nM
Human δ opioid receptor [32]
  Ki: 2.8 nM
Rat µ opioid receptor [33]
  GTP binding Emax: 45.6%
Human δ opioid receptor [34]
  GTP binding EC50: 2.9 nM
  GTP binding Emax: 47.6%
Guinea pig NK1 receptor [35]
  GPI Substance P antagonist Ke: 25 nM
[36]
  GPI (µ) IC50: 360 nM
Guinea pig NK1 receptor [37]
  GPI/LMMP Substance P antagonist Ke: 24.7 nM
[38]
  GPI/LMMP IC50: 359 nM
